Consider 8 molecules from patent publication US10941182 (Amgen, dated 2021).

In one test the target is T1, rat APJ receptor (rat, UniProt Q9JHG3 1-377).
T1 sequence (looked up): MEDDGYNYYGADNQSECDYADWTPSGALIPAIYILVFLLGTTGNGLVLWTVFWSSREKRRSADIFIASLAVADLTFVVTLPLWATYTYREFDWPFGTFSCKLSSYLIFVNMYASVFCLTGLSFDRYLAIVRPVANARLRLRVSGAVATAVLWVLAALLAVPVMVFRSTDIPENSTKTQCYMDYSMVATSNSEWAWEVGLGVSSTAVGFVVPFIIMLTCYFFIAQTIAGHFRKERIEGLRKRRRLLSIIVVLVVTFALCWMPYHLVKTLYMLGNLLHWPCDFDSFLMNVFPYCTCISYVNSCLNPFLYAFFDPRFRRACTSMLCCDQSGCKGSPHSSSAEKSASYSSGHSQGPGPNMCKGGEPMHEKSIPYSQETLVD
In words: cell-based or functional assay.

The target of a further test is T2, human APJ receptor (human, UniProt P35414 1-380).
T2 sequence (looked up): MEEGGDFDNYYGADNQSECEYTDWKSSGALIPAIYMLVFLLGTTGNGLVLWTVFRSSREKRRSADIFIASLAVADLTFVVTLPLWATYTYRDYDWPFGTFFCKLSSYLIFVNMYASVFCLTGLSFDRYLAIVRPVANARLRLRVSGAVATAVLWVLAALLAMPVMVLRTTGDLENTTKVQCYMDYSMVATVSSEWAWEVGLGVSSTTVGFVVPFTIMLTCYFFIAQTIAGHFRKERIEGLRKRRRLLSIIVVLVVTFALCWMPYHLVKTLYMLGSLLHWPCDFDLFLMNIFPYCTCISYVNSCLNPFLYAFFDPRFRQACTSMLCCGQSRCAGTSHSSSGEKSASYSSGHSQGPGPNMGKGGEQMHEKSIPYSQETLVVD
In words: cell-based or functional assay.

Starred links: 1 amine or outer side, 2 acyl side, 3 side chain; linkers in the order of their positions; H or OH if unused. Non-standard residues stand in square brackets, D forms with d. *: point of attachment. C18 diacid = O=C(O)CCCCCCCCCCCCCCCCC(=O)*; dBip = N[C@H](Cc1ccc(-c2ccccc2)cc1)C(=O)O; Oic = O=C(O)[C@@H]1C[C@@H]2CCCC[C@@H]2N1; dPhe(4-Cl) = N[C@H](Cc1ccc(Cl)cc1)C(=O)O; Heptadecanoyl = CCCCCCCCCCCCCCCCC(=O)*; Phe(4-I) = N[C@@H](Cc1ccc(I)cc1)C(=O)O; γGlu = O=C(O)[C@H](CCC(=O)[*:2])N[*:1]; 2Nal = N[C@@H](Cc1ccc2ccccc2c1)C(=O)O; Pentadecanoyl = CCCCCCCCCCCCCCC(=O)*; NMeR = CN[C@@H](CCCNC(=N)N)C(=O)O; Tridecanoyl = CCCCCCCCCCCCC(=O)*; hArg = N=C(N)NCCCC[C@H](N)C(=O)O; Tic = O=C(O)[C@@H]1Cc2ccccc2CN1; Cha = N[C@@H](CC1CCCCC1)C(=O)O; NMeL = CN[C@@H](CC(C)C)C(=O)O; Nle = CCCC[C@H](N)C(=O)O; Orn = NCCC[C@H](N)C(=O)O; AEEA = NCCOCCOCC(=O)O

B1: apelin polypeptide SEQ ID NO: 244 (peptide)
peptide: Tridecanoyl-[γGlu][AEEA][AEEA]Q[dR]P[NMeR][Cha]SHKG[Oic][Nle]P[Tic]-OH
SMILES: CCCCCCCCCCCCC(=O)N[C@@H](CCC(=O)NCCOCCOCC(=O)NCCOCCOCC(=O)N[C@@H](CCC(N)=O)C(=O)N[C@H](CCCNC(=N)N)C(=O)N1CCC[C@H]1C(=O)N(C)[C@@H](CCCNC(=N)N)C(=O)N[C@@H](CC1CCCCC1)C(=O)N[C@@H](CO)C(=O)N[C@@H](Cc1c[nH]cn1)C(=O)N[C@@H](CCCCN)C(=O)NCC(=O)N1[C@H](C(=O)N[C@@H](CCCC)C(=O)N2CCC[C@H]2C(=O)N2Cc3ccccc3C[C@H]2C(=O)O)C[C@@H]2CCCC[C@@H]21)C(=O)O
Take B1: the “EC50 Rat APJ Receptor” value with rat APJ receptor was found to be 281 nM. Besides, the “EC50 Human APJ Receptor” value with human APJ receptor was 10.3 nM.

B2: apelin polypeptide SEQ ID NO: 257 (peptide)
peptide: Tridecanoyl-[γGlu][AEEA][AEEA][Orn]F[hArg][hArg]QRP[hArg][NMeL]SHKG[Oic][Nle][2Nal]-OH
SMILES: CCCCCCCCCCCCC(=O)N[C@@H](CCC(=O)NCCOCCOCC(=O)NCCOCCOCC(=O)N[C@@H](CCCN)C(=O)N[C@@H](Cc1ccccc1)C(=O)N[C@@H](CCCCNC(=N)N)C(=O)N[C@@H](CCCCNC(=N)N)C(=O)N[C@@H](CCC(N)=O)C(=O)N[C@@H](CCCNC(=N)N)C(=O)N1CCC[C@H]1C(=O)N[C@@H](CCCCNC(=N)N)C(=O)N(C)[C@@H](CC(C)C)C(=O)N[C@@H](CO)C(=O)N[C@@H](Cc1c[nH]cn1)C(=O)N[C@@H](CCCCN)C(=O)NCC(=O)N1[C@H](C(=O)N[C@@H](CCCC)C(=O)N[C@@H](Cc2ccc3ccccc3c2)C(=O)O)C[C@@H]2CCCC[C@@H]21)C(=O)O
For B2, in the test with rat APJ receptor, the “EC50 Rat APJ Receptor” value is 3.14 nM. Besides, the “EC50 Human APJ Receptor” value with human APJ receptor amounted to 1.49 nM.

B3: apelin polypeptide SEQ ID NO: 258 (peptide)
peptide: Pentadecanoyl-[γGlu][AEEA][AEEA][Orn]F[hArg][hArg]QRP[hArg][NMeL]SHKG[Oic][Nle][2Nal]-OH
SMILES: CCCCCCCCCCCCCCC(=O)N[C@@H](CCC(=O)NCCOCCOCC(=O)NCCOCCOCC(=O)N[C@@H](CCCN)C(=O)N[C@@H](Cc1ccccc1)C(=O)N[C@@H](CCCCNC(=N)N)C(=O)N[C@@H](CCCCNC(=N)N)C(=O)N[C@@H](CCC(N)=O)C(=O)N[C@@H](CCCNC(=N)N)C(=O)N1CCC[C@H]1C(=O)N[C@@H](CCCCNC(=N)N)C(=O)N(C)[C@@H](CC(C)C)C(=O)N[C@@H](CO)C(=O)N[C@@H](Cc1c[nH]cn1)C(=O)N[C@@H](CCCCN)C(=O)NCC(=O)N1[C@H](C(=O)N[C@@H](CCCC)C(=O)N[C@@H](Cc2ccc3ccccc3c2)C(=O)O)C[C@@H]2CCCC[C@@H]21)C(=O)O
As to B3, the “EC50 Rat APJ Receptor” value with rat APJ receptor worked out at 2.57 nM. Moreover, the “EC50 Human APJ Receptor” value with human APJ receptor came to 1.75 nM.

B4: apelin polypeptide SEQ ID NO: 260 (peptide)
peptide: {C18 diacid}-[γGlu][AEEA][AEEA][Orn]F[hArg][hArg]QRP[hArg][NMeL]SHKG[Oic][Nle][2Nal]-OH
SMILES: CCCC[C@H](NC(=O)[C@@H]1C[C@@H]2CCCC[C@@H]2N1C(=O)CNC(=O)[C@H](CCCCN)NC(=O)[C@H](Cc1c[nH]cn1)NC(=O)[C@H](CO)NC(=O)[C@H](CC(C)C)N(C)C(=O)[C@H](CCCCNC(=N)N)NC(=O)[C@@H]1CCCN1C(=O)[C@H](CCCNC(=N)N)NC(=O)[C@H](CCC(N)=O)NC(=O)[C@H](CCCCNC(=N)N)NC(=O)[C@H](CCCCNC(=N)N)NC(=O)[C@H](Cc1ccccc1)NC(=O)[C@H](CCCN)NC(=O)COCCOCCNC(=O)COCCOCCNC(=O)CC[C@H](NC(=O)CCCCCCCCCCCCCCCCC(=O)O)C(=O)O)C(=O)N[C@@H](Cc1ccc2ccccc2c1)C(=O)O
As for B4, the “EC50 Rat APJ Receptor” value with rat APJ receptor was found to be 75 nM. For the same molecule, the “EC50 Human APJ Receptor” value with human APJ receptor is 48.5 nM.

B5: apelin polypeptide SEQ ID NO: 259 (peptide)
peptide: Heptadecanoyl-[γGlu][AEEA][AEEA][Orn]F[hArg][hArg]QRP[hArg][NMeL]SHKG[Oic][Nle][2Nal]-OH
SMILES: CCCCCCCCCCCCCCCCC(=O)N[C@@H](CCC(=O)NCCOCCOCC(=O)NCCOCCOCC(=O)N[C@@H](CCCN)C(=O)N[C@@H](Cc1ccccc1)C(=O)N[C@@H](CCCCNC(=N)N)C(=O)N[C@@H](CCCCNC(=N)N)C(=O)N[C@@H](CCC(N)=O)C(=O)N[C@@H](CCCNC(=N)N)C(=O)N1CCC[C@H]1C(=O)N[C@@H](CCCCNC(=N)N)C(=O)N(C)[C@@H](CC(C)C)C(=O)N[C@@H](CO)C(=O)N[C@@H](Cc1c[nH]cn1)C(=O)N[C@@H](CCCCN)C(=O)NCC(=O)N1[C@H](C(=O)N[C@@H](CCCC)C(=O)N[C@@H](Cc2ccc3ccccc3c2)C(=O)O)C[C@@H]2CCCC[C@@H]21)C(=O)O
Turning to B5, the “EC50 Rat APJ Receptor” value in the test with rat APJ receptor worked out at 2.09 nM. Further, the “EC50 Human APJ Receptor” value in the test with human APJ receptor is 2.59 nM.

B6: apelin polypeptide SEQ ID NO: 19 (peptide)
peptide: Ac-[hArg][hArg][dQ][hArg]P[dR][NMeL]SHKG[Oic][Phe(4-I)]P[dBip]-OH
As to B6, the “EC50 Rat APJ Receptor” value with rat APJ receptor worked out at 0.757 nM. The “EC50 Human APJ Receptor” value with human APJ receptor amounted to 0.533 nM.

B7: apelin polypeptide SEQ ID NO: 243 (peptide)
peptide: Heptadecanoyl-[γGlu][AEEA][AEEA][hArg]Q[dR]P[NMeR][Cha]SHKG[Oic][Nle]P[Tic]-OH
SMILES: CCCCCCCCCCCCCCCCC(=O)N[C@@H](CCC(=O)NCCOCCOCC(=O)NCCOCCOCC(=O)N[C@@H](CCCCNC(=N)N)C(=O)N[C@@H](CCC(N)=O)C(=O)N[C@H](CCCNC(=N)N)C(=O)N1CCC[C@H]1C(=O)N(C)[C@@H](CCCNC(=N)N)C(=O)N[C@@H](CC1CCCCC1)C(=O)N[C@@H](CO)C(=O)N[C@@H](Cc1c[nH]cn1)C(=O)N[C@@H](CCCCN)C(=O)NCC(=O)N1[C@H](C(=O)N[C@@H](CCCC)C(=O)N2CCC[C@H]2C(=O)N2Cc3ccccc3C[C@H]2C(=O)O)C[C@@H]2CCCC[C@@H]21)C(=O)O
As to B7, the “EC50 Rat APJ Receptor” value in the test with rat APJ receptor came to 10.3 nM. The “EC50 Human APJ Receptor” value with human APJ receptor was 1.19 nM.

B8: apelin polypeptide SEQ ID NO: 242 (peptide)
peptide: Heptadecanoyl-[γGlu][AEEA][AEEA][hArg][dQ][hArg]P[NMeR][Cha]SHKG[Oic][Nle]P[dPhe(4-Cl)]-OH
SMILES: CCCCCCCCCCCCCCCCC(=O)N[C@@H](CCC(=O)NCCOCCOCC(=O)NCCOCCOCC(=O)N[C@@H](CCCCNC(=N)N)C(=O)N[C@H](CCC(N)=O)C(=O)N[C@@H](CCCCNC(=N)N)C(=O)N1CCC[C@H]1C(=O)N(C)[C@@H](CCCNC(=N)N)C(=O)N[C@@H](CC1CCCCC1)C(=O)N[C@@H](CO)C(=O)N[C@@H](Cc1c[nH]cn1)C(=O)N[C@@H](CCCCN)C(=O)NCC(=O)N1[C@H](C(=O)N[C@@H](CCCC)C(=O)N2CCC[C@H]2C(=O)N[C@H](Cc2ccc(Cl)cc2)C(=O)O)C[C@@H]2CCCC[C@@H]21)C(=O)O
Take B8: the “EC50 Rat APJ Receptor” value with rat APJ receptor is 2.27 nM. For the same molecule, in the test with human APJ receptor, the “EC50 Human APJ Receptor” value stood at 2.19 nM.
